Test results taken from article PMC3936744 (Nucleic Acids Research, 2013).
Like-named read-outs stand apart in the source and are kept apart here.

T1: Dpo4 (Sulfolobus solfataricus P2 DNA polymerase IV) (Saccharolobus solfataricus, UniProt Q97W02)
T1 sequence (Q97W02 1-352): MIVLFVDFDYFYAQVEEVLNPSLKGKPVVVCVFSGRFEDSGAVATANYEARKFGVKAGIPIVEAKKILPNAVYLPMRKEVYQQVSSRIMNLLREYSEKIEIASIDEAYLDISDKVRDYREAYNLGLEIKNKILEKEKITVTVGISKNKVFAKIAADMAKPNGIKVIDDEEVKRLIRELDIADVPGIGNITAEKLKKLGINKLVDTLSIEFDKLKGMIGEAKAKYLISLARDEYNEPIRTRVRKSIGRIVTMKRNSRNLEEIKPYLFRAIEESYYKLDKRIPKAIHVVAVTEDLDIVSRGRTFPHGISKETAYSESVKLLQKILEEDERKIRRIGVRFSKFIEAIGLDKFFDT

T2: Dpo4 (P2 DNA polymerase IV), wild type, Cy5-labeled (Sulfolobus solfataricus P2, UniProt Q97W02 1-352)
T2 sequence: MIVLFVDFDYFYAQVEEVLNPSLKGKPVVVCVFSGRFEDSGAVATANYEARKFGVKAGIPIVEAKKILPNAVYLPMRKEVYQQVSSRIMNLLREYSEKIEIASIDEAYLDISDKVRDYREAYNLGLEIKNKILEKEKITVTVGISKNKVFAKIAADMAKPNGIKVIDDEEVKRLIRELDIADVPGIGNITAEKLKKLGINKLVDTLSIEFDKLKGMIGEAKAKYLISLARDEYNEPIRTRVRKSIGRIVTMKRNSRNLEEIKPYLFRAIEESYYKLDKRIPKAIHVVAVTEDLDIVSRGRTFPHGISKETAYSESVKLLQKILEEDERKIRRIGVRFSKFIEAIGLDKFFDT


Columns and labels:
[1] = biological target: T1, Dpo4 (Sulfolobus solfataricus P2 DNA polymerase IV); experiment: smFRET histogram shift and dissociation rate of the Dpo4-DNA complex; type: binding; settings: 1 mM; incorrect nucleotide; 8Cy3 primer-template; Ca2+, pH 7.5, 21 °C
[2] = biological target: T2, Dpo4 (P2 DNA polymerase IV), wild type, …; experiment: smFRET
[3] = biological target: T2, Dpo4 (P2 DNA polymerase IV), wild type, …; experiment: smFRET; remark: listed apart in the source
[4] = biological target: T2, Dpo4 (P2 DNA polymerase IV), wild type, …; experiment: smFRET; remark: listed apart in the source

Row | Molecule | binding result [2] | other results
1 | Nc1ccn([C@H]2C[C@H](O)[C@@H](COP(=O)(O)OP(=O)(O)OP(=O)(O)O)O2)c(=O)n1 [dCTP] | – | smFRET histogram shift and dissociation rate of the Dpo4-DNA complex [1]: both dCTP and dTTP induced a low FRET shift identical to that observed
2 | 11Cy3 primer-template (dsDNA, amino-C6-dT in template) DNA 1: GATGAAAATGAAGGAT DNA 2: CTCATAATAGCTATCCTTCATTTTCATC | binds | –
3 | 12Cy3 primer-template (dsDNA, amino-C6-dT in template) DNA 1: GATGAAAATGAAGGATA DNA 2: CTCATAATAGCTATCCTTCATTTTCATC | binds | –
4 | 7Cy3 primer-template (dsDNA, amino-C6-dT in template) DNA 1: GATGAAAATGAA DNA 2: CTCATAATAGCTATCCTTCATTTTCATC | binds | –
5 | 9Cy3 primer-template (dsDNA, amino-C6-dT in template) DNA 1: GATGAAAATGAAGG DNA 2: CTCATAATAGCTATCCTTCATTTTCATC | – | binding result [3]: binds
6 | 8Cy3 primer-template (dsDNA, amino-C6-dT in template) DNA 1: GATGAAAATGAAG DNA 2: CTCATAATAGCTATCCTTCATTTTCATC | – | Kd [4]: 30 ± 10 nM
7 | 10Cy3 primer-template (dsDNA, amino-C6-dT in template) DNA 1: GATGAAAATGAAGGA DNA 2: CTCATAATAGCTATCCTTCATTTTCATC | binds | –
